These results are taken from the RNAGym collection of RNA variant scans (doi:10.1073/pnas.2313332121).

Fewer inactive variants are shown than the library holds.

The chains are these.
B1: TPR 5TU (parent)
chain: GGAUCUUCUCGAUCUAACAAAAAAGACAAAUCUGCCACAAAGCUUGAGAGCAUCUUCGGAUGCAGAGGCGGCAGCCUUCGGUGGCGCGAUAGCGCCAACGUUCUCAACUAUGACACGCAAAACGCGUGCUCCGUUGAAUGGAGUUUAUCAUG

In this data set the parent is B1. Briefly: polymerase ribozyme fitness, log enrichment relative to wild type (log ratio); higher = more active; in vitro selection for triplet polymerase activity. Put shortly:
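Fitness measures genotype enrichment against wild-type enrichment on a logarithmic scale, with inverse-variance-weighted averaging of replicates. The logarithm is base 2, and genotypes were kept only with ≥10 input reads and ≥1 read per output in Illumina sequencing. The sequenced libraries came from one triplicate in vitro selection round, including frozen incubation at −7 °C, of PCR-built, transcribed mutant libraries of each subunit of a heterodimeric triplet polymerase ribozyme.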
On to A19G U55A C85A, for which the “polymerase ribozyme fitness (log ratio)” value is -2.52. As to U7C A21C U33G C43U G62A C87U, the “polymerase ribozyme fitness (log ratio)” value is ≤ -4.2.

In the case of U15C A21G A24U U53A, the “polymerase ribozyme fitness (log ratio)” value was found to be 0.983. Turning to G11U G42U G68A G86U C95G A137C, the “polymerase ribozyme fitness (log ratio)” value is ≤ -4.2.

With U45G G94A A137G, the “polymerase ribozyme fitness (log ratio)” value was -2.23. Regarding C5G C8U A12U C27G G59C A66G U78C U101A C125G C131A U139C, the “polymerase ribozyme fitness (log ratio)” value was -3.97. Next, U6A C10A U31A A49C U53A C76G G81A G92A A106G G117A: ≤ -4.2; C32G G42A U77C G84U: ≤ -4.2; A23G A47C: -2.96. As for C87U U104G, the “polymerase ribozyme fitness (log ratio)” value was -0.825. As to A52G C69G C85G A97U G126A G141U, the “polymerase ribozyme fitness (log ratio)” value is ≤ -4.2. For A23U A28G U55A G59A U78G G128A, the “polymerase ribozyme fitness (log ratio)” value is -3.79. Next, A22U A89U: 0.229; A3G U9G C36A G67A G68C A73G U135G: ≤ -4.2.

As for G58U C95U, the “polymerase ribozyme fitness (log ratio)” value was -0.414.

In the case of C14U G141U, the “polymerase ribozyme fitness (log ratio)” value was 0.0902. Next, C35A C76A: -4.08. Next, U56C G74U C76U G84U C125G A138C: ≤ -4.2; C5U A23G C32A C57G G59A C87G C95A U134C: ≤ -4.2; U56A C75A G141A: ≤ -4.2. In the case of C14G U56A it was -2.57; in that of A66G C85A A91G U148A, ≤ -4.2; in that of A49U A150U, -0.0151. In the case of A47U C96A G126A C129A A137U, the “polymerase ribozyme fitness (log ratio)” value was ≤ -4.2. C36G U130C: the “polymerase ribozyme fitness (log ratio)” value was -3.89. Next, U6A C18A A21U U56G G68A A91U G128C U139A G143A: ≤ -4.2; C85U A150G: -1.76. For the variant G11U G84A U90C A119G C125A, the “polymerase ribozyme fitness (log ratio)” value is ≤ -4.2.

Consider A115U C118A, for which the “polymerase ribozyme fitness (log ratio)” value is -1.83. In the case of G84A C118U it was -0.13; in that of C18U C76A C95U C99A U101G A107U C149G, ≤ -4.2. Regarding A29G A30U C43U G50A G67U C79G G88U C99A G141A, the “polymerase ribozyme fitness (log ratio)” value is ≤ -4.2. Next, A60G C85A U101G: -2.94; A26G A60G: -3.55. Next, A22C G86C: -2.83.

Consider A30C C36G U77G C116U C125U G133C, for which the “polymerase ribozyme fitness (log ratio)” value is ≤ -4.2. Next, A28G G94C G100U U134G: ≤ -4.2.

As for A19C C51A G86C, the “polymerase ribozyme fitness (log ratio)” value was -3.75. In the case of C36G C95A it was -3.65. In the case of A28G U53A G84U G140A it was ≤ -4.2; in that of A26C A52C C85U G117A A142G, -3.88; in that of C14U G74C A107G, ≤ -4.2.

In the case of A12C C54U A91U, the “polymerase ribozyme fitness (log ratio)” value is ≤ -4.2. With U56A U61G G65A C85A G86A A121U U127A, the “polymerase ribozyme fitness (log ratio)” value is ≤ -4.2. Next, U33G G80C C85G: ≤ -4.2; A20U G59A G88A C95G U151A: ≤ -4.2; C54U A122U: 0.0261. In the case of A26C C35U G88U C96G C108U G143A it was ≤ -4.2; in that of C38U G71A G81A G83U C93A, ≤ -4.2. In the case of U61C G67A G68C C79U A98G it was ≤ -4.2.

Take A23C U44C U55G C57A C93U U145A: the “polymerase ribozyme fitness (log ratio)” value is ≤ -4.2. Next, A39G A47G G83A A142G: ≤ -4.2; U31G C32U C72A C123G G152A: ≤ -4.2. Next, C93U G128U: -3.6; C5A C93U C105U C149G: -3.96.

Consider C57G C93A A113G A120C, for which the “polymerase ribozyme fitness (log ratio)” value is -4.13.

As for A91G G133A G141U G143U, the “polymerase ribozyme fitness (log ratio)” value is ≤ -4.2. In the case of A52C G80C G84U C93U it was ≤ -4.2; in that of U15G C129A, -2.55. In the case of G48A C79A C85G A110U G124A it was ≤ -4.2; in that of C14G U15A G68C G83A U111C, ≤ -4.2; in that of C36A C54G U61G C79A G80A U102C, ≤ -4.2.

Turning to U56A C123U, the “polymerase ribozyme fitness (log ratio)” value came out at 0.128. Next, A22U C35U U55A G59A G65A C85U C105A: ≤ -4.2; C38U C57G G58A C116A A138G: ≤ -4.2; C57A G128C: -2.62.
